Experimental findings from PMC3924863 (Cancer research, 2013) are described below.

The target in test [1] is recombinant monomeric cynomolgus monkey HER3 extracellular domain (cynomolgus monkey). As to the kind of experiment: solution equilibrium titration.
The target of test [2] is T1, recombinant monomeric human HER3 extracellular domain (human, UniProt P21860). Nature of the test: solution equilibrium titration.
Test [3] concerns the target recombinant mouse HER3 extracellular domain (Mus musculus, UniProt Q61526). As to the kind of experiment: solution equilibrium titration.
Test [4] addresses recombinant monomeric rat HER3 extracellular domain (Rattus norvegicus, UniProt Q62799). Nature of the test: solution equilibrium titration.
For test [5], the target named is Fc-tagged EGFR extracellular domain (Homo sapiens (assumed), UniProt P00533). As to the kind of experiment: ELISA. In general terms: In an ELISA, binding on a coated surface is turned into a signal by an enzyme label.
Test [6] concerns the target Fc-tagged HER2 extracellular domain (Homo sapiens (assumed), UniProt P04626). Nature of the test: ELISA.
In test [7] the target is Fc-tagged HER4 extracellular domain (Homo sapiens (assumed), UniProt Q15303). As to the kind of experiment: ELISA.
Test [8] deals with isolated HER3 domains D3-4 (Homo sapiens, UniProt P21860). Nature of the test: ELISA.
Test [9] deals with T1, recombinant monomeric human HER3 …. Nature of the test: ELISA.

Positions count from the first letter of the chain named.

B1: LJM716 (antibody, V domains shown)
VH: EVQLLESGGGLVQPGGSLRLSCAASGFTFSSYAMSWVRQAPGKGLEWVSAINSQGKSTYYADSVKGRFTISRDNSKNTLYLQMNSLRAEDTAVYYCARWGDEGFDIWGQGTLVTVSS
VL: DIQMTQSPSSLSASVGDRVTITCRASQGISNWLAWYQQKPGKAPKLLIYGASSLQSGVPSRFSGSGSGTDFTLTISSLQPEDFATYYCQQYSSFPTTFGQGTKVEIK
As a reminder, the Kd is the constant that tells how readily two partners part at equilibrium. B1: the equilibrium dissociation constant (Kd) in test [1] was found to be 0.043 nM; in test [2], 0.032 nM; in test [3] it was 0.037 nM; in test [4] it was 0.057 nM. For the same molecule, the binding result in test [5], in test [6] and in test [7] was “no binding” in each case.

B2: MOR09825 Fab (Fab, V domains shown)
VH: B1 VH with E1Q, L5V
VL: B1 VL with T85V
For the molecule B2, the results for the binding result in test [8] and in test [9] were “no binding” and “binds”, respectively.
